{"source": "patent US20170204187A1", "about": "“METHODS OF TREATING AND PREVENTING CANCER DRUG RESISTANCE” (Genentech, Inc., priority 2014, published 2017)", "molecules": {"B1": {"name": "EGF: secreted factor (protein, UniProt P01133 23-1207, looked up)", "Pro-epidermal growth factor": "PQHWSCPEGTLAGNGNSTCVGPAPFLIFSHGNSIFRIDTEGTNYEQLVVDAGVSVIMDFHYNEKRIYWVDLERQLLQRVFLNGSRQERVCNIEKNVSGMAINWINEEVIWSNQQEGIITVTDMKGNNSHILLSALKYPANVAVDPVERFIFWSSEVAGSLYRADLDGVGVKALLETSEKITAVSLDVLDKRLFWIQYNREGSNSLICSCDYDGGSVHISKHPTQHNLFAMSLFGDRIFYSTWKMKTIWIANKHTGKDMVRINLHSSFVPLGELKVVHPLAQPKAEDDTWEPEQKLCKLRKGNCSSTVCGQDLQSHLCMCAEGYALSRDRKYCEDVNECAFWNHGCTLGCKNTPGSYYCTCPVGFVLLPDGKRCHQLVSCPRNVSECSHDCVLTSEGPLCFCPEGSVLERDGKTCSGCSSPDNGGCSQLCVPLSPVSWECDCFPGYDLQLDEKSCAASGPQPFLLFANSQDIRHMHFDGTDYGTLLSQQMGMVYALDHDPVENKIYFAHTALKWIERANMDGSQRERLIEEGVDVPEGLAVDWIGRRFYWTDRGKSLIGRSDLNGKRSKIITKENISQPRGIAVHPMAKRLFWTDTGINPRIESSSLQGLGRLVIASSDLIWPSGITIDFLTDKLYWCDAKQSVIEMANLDGSKRRRLTQNDVGHPFAVAVFEDYVWFSDWAMPSVMRVNKRTGKDRVRLQGSMLKPSSLVVVHPLAKPGADPCLYQNGGCEHICKKRLGTAWCSCREGFMKASDGKTCLALDGHQLLAGGEVDLKNQVTPLDILSKTRVSEDNITESQHMLVAEIMVSDQDDCAPVGCSMYARCISEGEDATCQCLKGFAGDGKLCSDIDECEMGVPVCPPASSKCINTEGGYVCRCSEGYQGDGIHCLDIDECQLGEHSCGENASCTNTEGGYTCMCAGRLSEPGLICPDSTPPPHLREDDHHYSVRNSDSECPLSHDGYCLHDGVCMYIEALDKYACNCVVGYIGERCQYRDLKWWELRHAGHGQQQKVIVVAVCVVVLVMLLLLSLWGAHYYRTQKLLSKNPKNPYEESSRDVRSRRPADTEDGMSSCPQPWFVVIKEHQDLKNGGQPVAGEDGQAADGSMQPTSWRQEPQLCGMGTEQGCWIPVSSDKGSCPQVMERSFHMPSYGTQTLEGGVEKPHSLLSANPLWQQRALDPPHQMELTQ", "modifications": "Pro-epidermal growth factor"}}, "test_system": "LOX-IMVI cells", "experiment": "Secreted factor rescue screen on LOX-IMVI (FIG. 23)", "format": "cell-based", "from_the_text": "FIG. 23 A-C.|Vemurafenib resistant and sensitive cell lines can be used to determine and anticipate paths to resistance in patients. LOX-IMVI cells were rescued by FGF1, FGF2, EGF, and HGF in the screen. A, LOX-IMVI VemR cells were re-sensitized to PLX4032 by FGFR inhibition. B, Dual resistant LOX-IMVI VemR/FGFRi (i.e., resistant to vemurafenib and FGFR inhibitor) cells were re-sensitized to PLX4032 by EGFR inhibition. C, Triple resistant LOX-IMVI VemR/FGFRi/Erlotinib cells were re-sensitized to PLX4032 by MET inhibition."}
{"molecule": "B1", "values": [{"measurement": "rescue in the secreted factor screen", "value": "rescued"}]}
